# According to the supplement of paper PMC6757056:
# ± gives the standard deviation of the averaged measurements.
# B1: library; a variant is named by its letters at N, in order (parent)
# chain: GCUGUCACCGGUGUAUUACCCUAGUGGUCGACCGGUCUGAUGAGUCUNNNNNNAGACGAAACAGC
# What was measured:
# hypoxanthine [1] = variants of: B1; test: FACS-Seq fitted mean relative fluorescence mCherry/BFP without ligand (log10 relative fluorescence); ligand: hypoxanthine (xanthine aptamer); higher = higher reporter protein expression; conditions: HEK293T, ligand present: no
# How it was run: (§1)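 The ribozyme switch sat in an mCherry reporter, delivered by lentivirus into HEK293T libraries along with an EF1α-BFP marker. Enriched cells were incubated 48 h with or without ligand, sorted into 6 bins by mCherry/BFP, and bin genomic DNA was PCR-amplified, barcoded and MiSeq-sequenced. Fluorescence equals the fitted normal mean of the bin counts after normalization. Those log10(mCherry/BFP) means were scaled to five spiked-in control ribozymes.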
# hypoxanthine [2] = variants of: B1; test: normalized RNA/DNA level with ligand (relative to sTRSVctl = 100) (log10 (% of sTRSVctl)); ligand: hypoxanthine (xanthine aptamer); higher = less ribozyme self-cleavage, higher mRNA level; conditions: ligand concentration (+) RNA-Seq: 5 mM, HEK293T, reporter: mCherry (pCS4076), ligand present: yes
# How it was run: (§2)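 Library plasmids encoding reporter-linked ribozyme switches (mCherry, or eGFP for some folinic acid experiments) were transfected into HEK293T at 4 µg per 6-well well. Ligand, when used, was added 1 h before transfection. Total RNA was extracted with EDTA 72 h later, then reverse-transcribed, amplified, barcoded and sequenced. RNA level was RNA reads over DNA reads, divided by a spiked-in non-cleaving control (or the top 25 sequences), ×100, log10; only sequences with ≥100 DNA reads were kept.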
# hypoxanthine [3] = variants of: B1; test: normalized RNA/DNA level without ligand (relative to sTRSVctl = 100) (log10 (% of sTRSVctl)); ligand: hypoxanthine (xanthine aptamer); higher = less ribozyme self-cleavage, higher mRNA level; conditions: HEK293T, reporter: mCherry (pCS4076), ligand present: no
# How it was run: as §2
# hypoxanthine [4] = variants of: B1; test: FACS-Seq fitted mean relative fluorescence mCherry/BFP with ligand (log10 relative fluorescence); ligand: hypoxanthine (xanthine aptamer); ligand concentration (+) FACS-Seq: 5 mM; higher = higher reporter protein expression; conditions: HEK293T, ligand present: yes
# How it was run: as §1
Variant,FACS-Seq fitted mean (log10) (hypoxanthine [1]),normalized RNA/DNA level with ligand (log10) (hypoxanthine [2]),normalized RNA/DNA level without ligand (log10) (hypoxanthine [3]),FACS-Seq fitted mean (log10) (hypoxanthine [4])
AUCAUU,0.581 ± 0.01,1.96 ± 0.037,1.96 ± 0.029,0.691 ± 0.072
AUCAUA,0.467 ± 0.023,1.92 ± 0.035,1.798 ± 0.0029,0.562 ± 0.061
AUCCAA,0.618 ± 0.059,1.923 ± 0.016,1.79 ± 0.07,0.708 ± 0.06
AUCCAU,0.676 ± 0.075,1.96 ± 0.015,1.86 ± 0.032,0.6901 ± 0.0038
AUCCAG,0.222 ± 0.062,1.92 ± 0.034,1.55 ± 0.096,0.446 ± 0.052
AUACCC,0.513 ± 0.014,1.94 ± 0.043,1.89 ± 0.027,0.292 ± 0.028
AUACCG,0.00532 ± 0.0097,1.84 ± 0.095,1.47 ± 0.035,0.282 ± 0.082
AUCCCG,0.0616 ± 0.017,1.86 ± 0.04,1.51 ± 0.11,0.148 ± 0.14
AUCUAA,0.268 ± 0.023,1.905 ± 0.019,1.78 ± 0.022,0.411 ± 0.03
CUGAAA,0.56 ± 0.015,1.93 ± 0.027,1.74 ± 0.018,0.587 ± 0.036
GUCCGG,0.2204 ± 0.002,1.9355 ± 0.0013,1.64 ± 0.081,0.524 ± 0.11
AUAGAA,0.429 ± 0.005,1.87 ± 0.089,1.705 ± 0.0096,0.6216 ± 0.0039
AUAGAC,0.72 ± 0.12,1.88 ± 0.035,1.8 ± 0.018,0.755 ± 0.051
UUACGU,0.582 ± 0.017,1.95 ± 0.075,1.83 ± 0.025,0.566 ± 0.013
GUCUAA,0.326 ± 0.054,1.94 ± 0.048,1.801 ± 0.0053,0.458 ± 0.0071
GUCUAG,0.584 ± 0.051,1.87 ± 0.053,1.53 ± 0.044,0.604 ± 0.11
UUCGAA,0.708 ± 0.021,1.938 ± 0.0037,1.7 ± 0.045,0.716 ± 0.059
UUCGAU,0.164 ± 0.024,1.88 ± 0.019,1.767 ± 0.00052,0.303 ± 0.0063
UUAGGC,0.15 ± 0.015,1.95 ± 0.05,1.887 ± 0.014,0.181 ± 0.0045
UUAGGG,0.351 ± 0.012,1.87 ± 0.037,1.69 ± 0.017,0.655 ± 0.028
GUACGG,-0.0891 ± 0.011,1.893 ± 0.016,1.4 ± 0.048,0.337 ± 0.062
GUACGU,0.418 ± 0.03,1.8918 ± 0.0012,1.78 ± 0.067,0.626 ± 0.09
GUCGCA,0.304 ± 0.021,1.94 ± 0.037,1.788 ± 0.0024,0.56 ± 0.0098
UUACCG,-0.405 ± 0.057,1.899 ± 0.011,1.75 ± 0.052,-0.0713 ± 0.036

Variant,FACS-Seq fitted mean (log10) (hypoxanthine [1]),normalized RNA/DNA level with ligand (log10) (hypoxanthine [2]),normalized RNA/DNA level without ligand (log10) (hypoxanthine [3]),FACS-Seq fitted mean (log10) (hypoxanthine [4])
AUAUAC,0.568 ± 0.087,1.88 ± 0.019,1.8 ± 0.069,0.572 ± 0.028
AUAUAA,0.487 ± 0.056,1.883 ± 0.015,1.77 ± 0.027,0.6452 ± 0.0064
AUAUAG,0.389 ± 0.046,1.83 ± 0.03,1.54 ± 0.057,0.611 ± 0.076
UUCGUA,0.252 ± 0.0058,1.93 ± 0.064,1.87 ± 0.026,0.384 ± 0.035
CUACUA,0.522 ± 0.16,1.9 ± 0.046,1.78 ± 0.02,0.51 ± 0.059
AUAUCG,0.607 ± 0.0094,1.86 ± 0.065,1.44 ± 0.045,0.756 ± 0.042
AUCGAC,0.449 ± 0.044,1.95 ± 0.063,1.81 ± 0.054,0.415 ± 0.12
AUCGAU,0.371 ± 0.032,1.9 ± 0.025,1.669 ± 0.0035,0.284 ± 0.033
AUCGAG,0.2633 ± 0.00067,1.793 ± 0.014,1.35 ± 0.044,0.4 ± 0.028
CUAGCA,0.139 ± 0.058,1.93 ± 0.038,1.83 ± 0.04,0.177 ± 0.018
UUCAAG,0.352 ± 0.023,1.907 ± 0.0058,1.72 ± 0.056,0.545 ± 0.024
UUCAAU,-0.589 ± 0.025,1.937 ± 0.015,1.81 ± 0.024,-0.1336 ± 0.00015
UUCAAA,0.11 ± 0.051,1.95 ± 0.026,1.802 ± 0.0086,0.0695 ± 0.15
CUAGGG,0.0497 ± 0.042,1.89 ± 0.035,1.53 ± 0.028,0.294 ± 0.039
CUAGGA,0.7992 ± 0.0063,1.938 ± 0.0084,1.859 ± 0.018,0.697 ± 0.022
GUAUCU,0.165 ± 0.12,1.966 ± 0.0064,1.94 ± 0.025,0.536 ± 0.059
GUAUGG,0.0518 ± 0.044,1.783 ± 0.01,1.331 ± 0.013,0.63 ± 0.026
GUAUGA,0.0955 ± 0.069,1.89 ± 0.049,1.64 ± 0.012,0.000695 ± 0.097
GUAUGU,0.23 ± 0.082,1.899 ± 0.013,1.77 ± 0.017,0.398 ± 0.0075
GUCAGC,0.371 ± 0.0086,1.925 ± 0.011,1.79 ± 0.018,0.605 ± 0.059
GUCAGU,0.34 ± 0.024,1.94 ± 0.023,1.833 ± 0.0092,0.492 ± 0.11
GUCAGA,-0.213 ± 0.0037,1.897 ± 0.0028,1.74 ± 0.042,-0.0451 ± 0.017
GUCAGG,0.326 ± 0.071,1.858 ± 0.016,1.46 ± 0.042,0.67 ± 0.0068
CUCUGC,-0.384 ± 0.044,1.892 ± 0.0033,1.882 ± 0.0062,-0.335 ± 0.067

Variant,FACS-Seq fitted mean (log10) (hypoxanthine [1]),normalized RNA/DNA level with ligand (log10) (hypoxanthine [2]),normalized RNA/DNA level without ligand (log10) (hypoxanthine [3]),FACS-Seq fitted mean (log10) (hypoxanthine [4])
UUAUAC,0.396 ± 0.054,1.908 ± 0.015,1.827 ± 0.0035,0.632 ± 0.0036
AUCCGC,0.3452 ± 0.0029,1.931 ± 0.011,1.8 ± 0.024,0.517 ± 0.049
AUCCGA,0.296 ± 0.067,1.92 ± 0.014,1.758 ± 0.012,0.5594 ± 0.0019
CUCGAA,0.449 ± 0.073,1.92 ± 0.068,1.75 ± 0.037,0.395 ± 0.041
CUCGAU,0.5204 ± 0.0026,1.93 ± 0.017,1.83 ± 0.081,0.642 ± 0.061
GUCGGC,0.485 ± 0.026,1.91 ± 0.025,1.68 ± 0.042,0.81 ± 0.023
GUCGGA,-0.358 ± 0.082,1.98 ± 0.055,1.79 ± 0.027,-0.116 ± 0.049
GUCGGG,0.355 ± 0.068,1.882 ± 0.0031,1.58 ± 0.12,-0.0447 ± 0.038
CUCGGC,0.2237 ± 0.00057,1.97 ± 0.12,1.92 ± 0.093,0.24 ± 0.018
CUCGGG,0.547 ± 0.055,1.923 ± 0.0029,1.657 ± 0.0028,0.46 ± 0.0048
CUCGGU,-0.663 ± 0.081,1.94 ± 0.022,1.85 ± 0.041,-0.785 ± 0.082
CUCACU,0.473 ± 0.021,1.99 ± 0.041,1.92 ± 0.05,0.419 ± 0.12
UUAGAA,0.092 ± 0.0099,1.89 ± 0.043,1.694 ± 0.0073,0.285 ± 0.021
AUAUUG,0.2149 ± 0.0019,1.87 ± 0.053,1.53 ± 0.075,0.486 ± 0.011
AUAUUC,0.242 ± 0.014,1.92 ± 0.042,1.88 ± 0.051,0.166 ± 0.071
GUCCCG,0.415 ± 0.0031,1.91 ± 0.0099,1.64 ± 0.12,0.511 ± 0.028
UUCACA,0.502 ± 0.065,1.9 ± 0.051,1.88 ± 0.05,0.58 ± 0.026
UUCGCA,0.4682 ± 0.0031,1.95 ± 0.051,1.86 ± 0.067,0.512 ± 0.038
GUAGGG,0.143 ± 0.034,1.86 ± 0.055,1.49 ± 0.037,0.5302 ± 0.0037
GUAGGU,0.5146 ± 0.0047,1.95 ± 0.02,1.79 ± 0.034,0.578 ± 0.11
GUAGGC,0.126 ± 0.003,1.87 ± 0.043,1.38 ± 0.043,0.611 ± 0.02
CUAGAA,0.259 ± 0.2,1.92 ± 0.032,1.79 ± 0.042,0.359 ± 0.059
CUAGAC,0.273 ± 0.014,1.901 ± 0.0041,1.832 ± 0.011,0.149 ± 0.099
